Two molecules from patent EP4613288A1 can be followed below.

For test [1], the target named is human activated protein C (human) (UniProt P04070). Put plainly: cell-based or functional assay.
Test [2] shares this target.

A value given as a limit tells only on which side of the number the result lay.

B1: murine antibody HAPC1573 (antibody, from another filing, V domains shown)
VH: EVKLEESGGGLVQPGGSMKLSCVASGFTFSNYYLNWVRQSPEKGLEWVADIRLKSNNYEKHYAESVKGRFTISRDDSKSSVYLQMNNLRAEDTGIYYCIREGDYFDYWGQGTTLTVSS
VL: NIVLTQSPASLAVSLGQRATISCRASESVDSFGATFMHWYQQKPGQPPKLLIYLASNLESGVPARFSGSGSRTDFTLTIDPVEADDAATYYCQQNNEDPYTFGGGTKLEIKR
In the case of B1, in test [1], the Mean Value of the Clotting Time (s), Protac-induced APTT, FIX-deficient plasma, antibody 0.5 µg/ml came out at 584 s; the Mean Value of the Clotting Time (s), Protac-induced APTT, FIX-deficient plasma, antibody 1 µg/ml was 567 s; the Mean Value of the Clotting Time (s), Protac-induced APTT, FIX-deficient plasma, antibody 5 µg/ml is 404 s; the Mean Value of the Clotting Time (s), Protac-induced APTT, FVIII-deficient plasma, antibody 0.5 µg/ml amounted to 600 s. For the same molecule, in test [1], the Mean Value of the Clotting Time (s), Protac-induced APTT, FVIII-deficient plasma, antibody 1 µg/ml came to 629 s; the Mean Value of the Clotting Time (s), Protac-induced APTT, FVIII-deficient plasma, antibody 5 µg/ml was found to be 389 s; the minimal dose inhibiting aPC anticoagulant activity, Protac-induced APTT, human plasma deficient in various coagulation factors was more than 100 µg/mL.

B2: anti-aPC monoclonal antibody HAPC-14-6 (antibody, V domains shown)
VH: EVQLVESGGGLVQPGGSLRLSCAASGFTFSFYYLNWVRQAPGKGLEWVGDIRLKKNNYEKHYAESVKGRFTISRDDSKSITYLQMNSLRAEDTAVYYCAREGDYFDYWGQGTTVTVSS
VL: DIQLTQSPSSLSASVGDRVTITCRASESVDSFGATFMHWYQQKPGKAPKLLIYLASRLGSGVPSRFSGSGSGTDFTLTISSLQPEDFATYYCQQNNEDPYTFGQGTKLEIK
With B2, the fold increase in affinity compared to the humanized antibody without mutations in the CDR regions in test [2] came out at 100 fold. Also, in test [1], the Mean Value of the Clotting Time (s), Protac-induced APTT, FIX-deficient plasma, antibody 0.5 µg/ml is 181 s; the Mean Value of the Clotting Time (s), Protac-induced APTT, FIX-deficient plasma, antibody 1 µg/ml is 198 s; the Mean Value of the Clotting Time (s), Protac-induced APTT, FIX-deficient plasma, antibody 5 µg/ml was found to be 180 s; the Mean Value of the Clotting Time (s), Protac-induced APTT, FVIII-deficient plasma, antibody 0.5 µg/ml amounted to 182 s. Also, in test [1], the Mean Value of the Clotting Time (s), Protac-induced APTT, FVIII-deficient plasma, antibody 1 µg/ml worked out at 187 s; the Mean Value of the Clotting Time (s), Protac-induced APTT, FVIII-deficient plasma, antibody 5 µg/ml was found to be 162 s; the minimal dose inhibiting aPC anticoagulant activity, Protac-induced APTT, human plasma deficient in various coagulation factors was less than 1 µg/mL.
